According to the nanobody polyreactivity screen of Harvey et al. (2022):

Experiment: yeast display, Sf9 membrane polyspecificity reagent, FACS + sequencing; frameworks hold sequencing errors
Procedure, shortened: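 Galactose induction of a Saccharomyces cerevisiae BJ5465 synthetic nanobody display library ran 36–48 hours. The cells were then stained for 1 hour at 4 °C with 10% biotinylated, detergent-solubilized Sf9 membrane reagent, pulled down on streptavidin microbeads and FACS-sorted into low and high (top ~1%) gates on expression and reagent-binding fluorescence. Labels for polyreactivity follow the gate of origin.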

Sequence | polyreactivity (PSR sort gate)
QVQLVESGGGLVQAGGSLRLSCAASGSIFAKYAMGWYRQAPGKEREFVAAIRASGGRTYYADSVKGRFTISRDNAKNTVYLKMNSLKPEDTAFYYCASDVSYRAGFDYWGQGTQVTVSS | high polyreactivity
QFQLVESGGGLVQAGGSLRLSCAASGGIFDTNAMGWYRQATGKDRELVAAITVRGGSTYYADSVKGRFTISRDNAKNTVYLQMNSLKPEDTAVYYCATRSPKRAAVRYNYWGQGTQVTVSS | high polyreactivity
QVQLVESGGGLVQAGGSLRLSCAASGRTFGPNAMGWYRQAPGKERELVAAIRYSGGSTYYADSVKGRFTISRDNAKNTVYLQMNSLKPEDTAVYYCAADYVSYVGERGTLYVRYDYWGQGTQVTVSS | high polyreactivity
QVQLVDSGGGLVQAGGRLRLSCAASGSTFGWYGMGWYIQAPGKERELVASINWRGSSTYYADSVKGRFTMSRDNAKNTVYLQMNSLKPEDTAVYYCATTRDWAYNYWGQGTQVTVSS | low polyreactivity
QVQLVESGGGLVQAGGSLRLSCAASGYTIRKNAMGWYRQAPGKERELVAAMSRSGGSTYYADSVKGRFTISRDNAKNIVYLQMNSLKPEDTAVYYCNTRYPYYWPMYGYWGQGTQVTVSS | high polyreactivity
QVQLVESGGGLVQAGGSLRLSCAASGSMFYKNAMVWYRQAPGKEREMVAAINSVGSTDYADSVKGRFTISRDNAKNTVYLQMNSLTPEDTAVYYCAATNLFTIIDYDYWGQGTQVTVSS | low polyreactivity
QVQLVESGGGLVQAGGSLRLSCDASGRIFRGYAMGWYRKAPGKERELVAAISGRGGRTNYADSVKGRFTISRDNAKNTVYLQMNSLKTEDTAVYYCAVKRLSYPYVGHYYFWGQGTQVTVSS | high polyreactivity
QVQLVESGGGLVQAGGSLRLSCAASGRIFVDNTMGWYRPAPGKERELVAAISRRGTSTYYADSVKGRSTISRDNAKNTVYLQMNSLKPEDTAVYYCAADYYYYDSQQGMDYWGQGTQVTVSS | high polyreactivity
QVQLVESGGGLDQAGGSLPLRCAATGSIFHDYALGWYSQAPGKERELVAVISTSGGSTYYADSVKGRFTISRDNAKNTVYLQMNSLKPEDTAVYYCNAELSFWALGYDYWGQGTQVTVSS | low polyreactivity
QVQLVESGGGLVQAGGSLRLSCAASGSIFSDNAMGWYRPAPGKESELVAAITYSGGRTSYADSVKGRFTISRDNAKNTVYLQMNSLKPEDTAVYYCNAEYYYWNREGDYWGQGTQVTVSS | low polyreactivity
QVQLVESGGGLVQAGGSLRLSCAASGSIFKYYTMGWSRQAPGKERELVAAINSSGGSTYYADSVKGRFTISRYNAKNTVYLQMYSLKPEDTAVYYCIAVTSRRWRYELDYLGQGTQVTVSS | high polyreactivity
QDQLVESGGGLVQAGGSLRLSCAASGSIFKRYAMGWYRQAPGKERELVAAISYSGGSTYYADSVKGRFTISRDNAKNTVYLQMNSLKPEDTAVYYCAAATYRQQWHYYWGQGTQVTVSS | high polyreactivity
QVQLVESGGGLVQAGGSLRLSCAASGRIFYVNAMGWYRQAPGKERELVAGIDDGVTTYYAVSVKGRFTSSRDNAKNTVYLQMNSLKPEDTAVYYCAKETLVILIYDYWGQGTQVTVSS | low polyreactivity
QVQLVESGGGLVQAGGSLRLSCAASGFTFVGNAMGWYRQAPGKERELVAAIRWSSGSTYYADSVKGRFTISRDNAKNTVYLQMNSLKPEDTAVYYCNAVYSVFYEYDYCGQGTQVTVSS | low polyreactivity
QVQLVESGGGLVQAGGSLRLSCAASGRTFYPYAMGWYRKAPVKERDLVAAISWSGGSTRYADSVKGRFTISRDNAKNTVDLQMNSLKPEDTAVYYCNTQYSWYYPADYDYWGQGTQVTVSS | low polyreactivity
QVQLVESGGGLVQAGGSLRLSCAASGSTFRIYAMGWYRQAPGKERELVAAITSGGDTNYADSVKGRFTISRDNAKNTVYLQMNSLKPEDTAVYYCAADGHSVYTELDYWGQGTQVTVSS | low polyreactivity
QVQLVESGGGLVQAGGSLRLSCAASGRIFVGYAMGWSRQAPGKERELVASITRSAGRTFYADSVKGRFTISRDNAKNTVYLQMNSLKPEDTAVYYCNARYWKGYNGYLRSTRRDDYWGQGTQVTVSS | high polyreactivity
